Assay results reported in article PMC12017799, “Molecular mechanism of SmMYB53 activates the expression of SmCYP71D375, thereby modulating tanshinone accumulation in Salvia miltiorrhiza”.

Biological target: SmMYB53 (Salvia miltiorrhiza, UniProt A0A059PSP0 1-372)
Experiment: EMSA; SmMYB53 alone; LightShift Chemiluminescent EMSA kit (Beyotime) binding buffer, >30 min at 4 C; unlabeled competitor 10-fold; salt and pH not stated
Details: protein: recombinant; tags: His (pCold); label: biotin; blunt

Sequence of SmMYB53 (A0A059PSP0 entry or part of it): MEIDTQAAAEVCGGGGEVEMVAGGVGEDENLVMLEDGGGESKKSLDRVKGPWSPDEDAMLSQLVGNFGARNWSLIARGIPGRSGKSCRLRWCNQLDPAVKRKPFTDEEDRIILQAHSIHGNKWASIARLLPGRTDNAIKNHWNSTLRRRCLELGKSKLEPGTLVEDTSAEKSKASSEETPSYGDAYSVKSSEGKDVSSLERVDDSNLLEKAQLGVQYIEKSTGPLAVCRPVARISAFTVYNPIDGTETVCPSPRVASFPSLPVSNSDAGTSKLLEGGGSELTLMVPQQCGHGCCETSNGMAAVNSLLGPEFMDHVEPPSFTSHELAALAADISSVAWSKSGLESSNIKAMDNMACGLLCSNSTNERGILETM

Binder | binding result
MBS2 probe (SmCYP71D375 promoter) (dsDNA) DNA 1: AGATCCGTTGGAGAAGATCCGTTGGAGAAGATCCGTTGGAGA DNA 2: TCTCCAACGGATCTTCTCCAACGGATCTTCTCCAACGGATCT | binds
MBS1 probe (SmCYP71D375 promoter) (dsDNA) DNA 1: GCTTCAGTTGAGCTGCTTCAGTTGAGCTGCTTCAGTTGAGCT DNA 2: AGCTCAACTGAAGCAGCTCAACTGAAGCAGCTCAACTGAAGC | binds
